T1: GST-M110-(M1-E309), GST tag not cleaved
T1 chain: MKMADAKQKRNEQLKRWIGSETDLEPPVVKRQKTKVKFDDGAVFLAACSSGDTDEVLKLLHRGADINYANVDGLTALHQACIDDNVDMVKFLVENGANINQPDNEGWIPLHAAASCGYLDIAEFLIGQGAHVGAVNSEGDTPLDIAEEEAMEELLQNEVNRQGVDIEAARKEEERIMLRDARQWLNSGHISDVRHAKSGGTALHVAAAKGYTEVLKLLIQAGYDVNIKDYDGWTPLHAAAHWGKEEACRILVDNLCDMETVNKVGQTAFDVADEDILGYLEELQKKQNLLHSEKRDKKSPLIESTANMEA


Key:
[1] = biological target: catalytic subunit of protein phosphatase-1, γ1-isoform (PP1γ1), produced in Escherichia coli (UniProt P36873); assay: co-crystal structure at 3.0 Å, method of Lee and Richards
[2] = biological target: T1, GST-M110-(M1-E309), GST tag not cleaved

Sequence of catalytic subunit of protein phosphatase-1, γ1-isoform (PP1γ1), produced in Escherichia coli (P36873 whole entry, canonical isoform): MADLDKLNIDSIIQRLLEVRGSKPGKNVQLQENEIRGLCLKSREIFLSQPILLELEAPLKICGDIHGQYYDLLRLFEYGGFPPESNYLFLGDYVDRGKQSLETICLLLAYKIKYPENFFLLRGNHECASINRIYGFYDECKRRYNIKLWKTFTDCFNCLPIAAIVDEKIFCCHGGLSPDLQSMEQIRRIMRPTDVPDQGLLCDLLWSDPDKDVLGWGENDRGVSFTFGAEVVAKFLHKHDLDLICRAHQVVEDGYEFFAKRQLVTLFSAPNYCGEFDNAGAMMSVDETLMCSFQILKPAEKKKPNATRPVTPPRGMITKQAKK

| total solvent accessible surface area buried on formation of the complex [1] | Binder | concentration needed to modulate the substrate specificity of PP1c, relative to the cleaved fragment [2] |
| --- | --- | --- |
| 980 Å2 | GRRVSFADNFGFN [GM-(G63-N75) synthetic peptide] |  |
|  | β isoform of PP1c released from rabbit skeletal muscle PP1G (protein) ADGELNVDSLITRLLEVRGCRPGKIVQMTEAEVRGLCIKSREIFLSQPILLELEAPLKICGDIHGQYTDLLRLFEYGGFPPEANYLFLGDYVDRGKQSLETICLLLAYKIKYPENFFLLRGNHECASINRIYGFYDECKRRFNIKLWKTFTDCFNCLPIAAIVDEKIFCCHGGLSPDLQSMEQIRRIMRPTDVPDTGLLCDLLWSDPDKDVQGWGENDRGVSFTFGADVVSKFLNRHDLDLICRAHQVVEDGYEFFAKRQLVTLFSAPNYCGEFDNAGGMMSVDETLMCSFQILKPSEKKAKYQYGGLNSGRPVTPPRTANPPKKR | If the GST tags were not cleaved with thrombin, a 10-fold higher concentration of M110-(M1-E309) was needed to modulate the substrate specificity of PP1c |

From patent US6884600
